Experimental findings from paper doi:10.1101/2021.10.20.465084 (bioRxiv, 2021) are described below.

As a reminder, the Kd is the constant that tells how readily two partners part at equilibrium. Usually koff stands for the first-order rate constant of dissociation.

Experiment [1] concerns the target T1, Prefoldin from Pyrococcus horikoshii (PhPFD-α2β4 heterohexamer, 86.4 kDa) (Pyrococcus horikoshii, UniProt O58263 1-148; O58268 1-117, S98G).
T1 sequence 1: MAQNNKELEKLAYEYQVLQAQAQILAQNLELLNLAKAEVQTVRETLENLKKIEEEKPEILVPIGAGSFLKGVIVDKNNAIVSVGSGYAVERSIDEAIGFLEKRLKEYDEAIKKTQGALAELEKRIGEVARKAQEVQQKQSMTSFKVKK
T1 sequence 2: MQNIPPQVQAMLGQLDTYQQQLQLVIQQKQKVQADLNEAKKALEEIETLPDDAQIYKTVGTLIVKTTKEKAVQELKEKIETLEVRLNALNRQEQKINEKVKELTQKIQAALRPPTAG
In words: NMR titration.

Experiment [2] has as its target T1, Prefoldin from Pyrococcus horikoshii …. In words: BLI. On the technique in general: BLI is a label-free optical method that tracks binding on a fibre tip over time.

Positions of bridges follow the written chain, without caps; N, C: chain ends. No end group written: not given here. *: point of attachment. Biotin = O=C1N[C@H]2[C@H](CS[C@H]2CCCCC(=O)*)N1; βAla = NCCC(=O)O

B1: U-[15N]-labelled human islet amyloid polypeptide (IAPP), recombinant, monomeric (peptide)
peptide: KCNTATCATQRLANFLVHSSNNFGAILSSTNVGSNTY
modifications: ends and bridges not checked; also: uniformly [15N]-labelled
Turning to B1, in experiment [1], the Kd was 61 µM and the koff is ~6000 s⁻¹.

B2: biotinylated IAPP (biotinyl-[β-Ala]-[β-Ala]-IAPP-NH2) (peptide)
peptide: {Biotin-βAla-βAla}-KCNTATCATQRLANFLVHSSNNFGAILSSTNVGSNTY-NH2
modifications: disulfide 2-7
SMILES: CC[C@H](C)[C@H](NC(=O)[C@H](C)NC(=O)CNC(=O)[C@H](Cc1ccccc1)NC(=O)[C@H](CC(N)=O)NC(=O)[C@H](CC(N)=O)NC(=O)[C@H](CO)NC(=O)[C@H](CO)NC(=O)[C@H](Cc1c[nH]cn1)NC(=O)[C@@H](NC(=O)[C@H](CC(C)C)NC(=O)[C@H](Cc1ccccc1)NC(=O)[C@H](CC(N)=O)NC(=O)[C@H](C)NC(=O)[C@H](CC(C)C)NC(=O)[C@H](CCCNC(=N)N)NC(=O)[C@H](CCC(N)=O)NC(=O)[C@@H](NC(=O)[C@H](C)NC(=O)[C@@H]1CSSC[C@H](NC(=O)[C@H](CCCCN)NC(=O)CCNC(=O)CCNC(=O)CCCC[C@@H]2SC[C@@H]3NC(=O)N[C@@H]32)C(=O)N[C@@H](CC(N)=O)C(=O)N[C@@H]([C@@H](C)O)C(=O)N[C@@H](C)C(=O)N[C@@H]([C@@H](C)O)C(=O)N1)[C@@H](C)O)C(C)C)C(=O)N[C@@H](CC(C)C)C(=O)N[C@@H](CO)C(=O)N[C@@H](CO)C(=O)N[C@H](C(=O)N[C@@H](CC(N)=O)C(=O)N[C@H](C(=O)NCC(=O)N[C@@H](CO)C(=O)N[C@@H](CC(N)=O)C(=O)N[C@H](C(=O)N[C@@H](Cc1ccc(O)cc1)C(N)=O)[C@@H](C)O)C(C)C)[C@@H](C)O
With B2, the affinity in experiment [2], expressed as Kd, was 16 ± 2.4 µM.
